Experimental data as given in the supplement of paper PMC10567573.

B1: SASS6 (parent)
chain: QKELQDVGQSLRIKEQEVCKLQEQ
B2: HDAC6 (parent)
chain: ACAQLATGAACRLVEAVLSGEVLN

Variants of: B1
Assay: protein stability index of a GFP-peptide fusion (GPS, HEK-293T) (PSI 1-6); higher = more stable
Details: c terminus: a fixed tail appended
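Note: lentivirally expressed fusions sorted by FACS into six bins by GFP to DsRed ratio, PSI derived from sequencing read proportions per bin multiplied by bin number.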

| Variant | protein stability index |
| --- | --- |
| QKELQDVGQSYRIKEQEVCKLQEQ | 5.21 |
| QKELQDVGQSTRIKEQEVCKLQEQ | 5.67 |
| QKELQDVGQSDRIKEQEVCKLQEQ | 5.75 |
| QKELQDVGQSLRIKEQEVCKLNEQ | 5.11 |
| QKELQDVGQSLRIKEQEVCKLYEQ | 4.67 |
| QKELQDVGQSLRIKEQEVCKLFEQ | 4.5 |
| QKELQDVGQSLRIKEQEVCKLDEQ | 5.58 |
| QKELQDVGQSLRIKEQEVCKLWEQ | 4.83 |
| QKELQDVGQSLRIMEQEVCKLQEQ | 4.47 |
| QKELQDVGQSLRIDEQEVCKLQEQ | 5.63 |
| QKELQDVGQSLRISEQEVCKLQEQ | 5.33 |
| QKELQDVGQSLRIKETEVCKLQEQ | 5.28 |
| QKELQDVGQSLRIKEHEVCKLQEQ | 5.13 |
| QKELQDVGQSLRIKESEVCKLQEQ | 5.56 |
| QKELQDVGMSLRIKEQEVCKLQEQ | 4.67 |
| QKELQDVGNSLRIKEQEVCKLQEQ | 5.67 |
| QKELQDVGASLRIKEQEVCKLQEQ | 5.52 |
| QKELQDVGQSLRIKEQRVCKLQEQ | 4.54 |
| QKELQDVGQSLRIKEQNVCKLQEQ | 4.33 |
| QKELQDVGQSLRIKEQMVCKLQEQ | 4.71 |
| QKELQDVGQSLRIKEQDVCKLQEQ | 5.55 |
| QKELQDVGQSLRIKEQEVCKHQEQ | 5.57 |

| Variant | protein stability index |
| --- | --- |
| QKELQDVGQSLRIKVQEVCKLQEQ | 3.54 |
| QKELQDVGQSLRIKMQEVCKLQEQ | 4.54 |
| QKELQDVGQSLRIKCQEVCKLQEQ | 4.11 |
| QKELQVVGQSLRIKEQEVCKLQEQ | 4.46 |
| QKELQGVGQSLRIKEQEVCKLQEQ | 5 |
| QKELQQVGQSLRIKEQEVCKLQEQ | 5.31 |
| QKELQFVGQSLRIKEQEVCKLQEQ | 3.81 |
| QKELQDVGQDLRIKEQEVCKLQEQ | 3.74 |
| QKELQDVGQHLRIKEQEVCKLQEQ | 4.89 |
| QKELQDVGQPLRIKEQEVCKLQEQ | 4.37 |
| QKELQDVGQSLEIKEQEVCKLQEQ | 5.71 |
| QKELQDVGQSLNIKEQEVCKLQEQ | 5.19 |
| QKELQDVGQSLIIKEQEVCKLQEQ | 5.14 |
| QKELQDVGQSLDIKEQEVCKLQEQ | 4.03 |
| QKELQDVGQSLLIKEQEVCKLQEQ | 5.33 |
| QDELQDVGQSLRIKEQEVCKLQEQ | 5.26 |
| QHELQDVGQSLRIKEQEVCKLQEQ | 5.46 |
| QKELQDVGQSLRIKEQEGCKLQEQ | 4.49 |
| LKELQDVGQSLRIKEQEVCKLQEQ | 4.46 |
| NKELQDVGQSLRIKEQEVCKLQEQ | 5.75 |
| QKELQDVGQSLRIKEQEVCKLQEY | 4.57 |
| QKELQDVGQSLRIKEQEVCKLQEL | 5.16 |

| Variant | protein stability index |
| --- | --- |
| QKELQDVGQSLRIKEQEVCKLQEE | 5.77 |
| QKELQDVGQSLRIKEQEVCKLQED | 5.04 |
| QKELQDVGQSLRIKEQEVRKLQEQ | 5.23 |
| QKELQDVGQSLRIKEQEVQKLQEQ | 5.61 |
| QKELQDVGQSLRIKEQEVAKLQEQ | 4.79 |
| QKELQDVGQSLRIKEQEVWKLQEQ | 4.59 |
| QKESQDVGQSLRIKEQEVCKLQEQ | 5.41 |
| QKEIQDVGQSLRIKEQEVCKLQEQ | 5.34 |
| QKEHQDVGQSLRIKEQEVCKLQEQ | 5.68 |
| QKEYQDVGQSLRIKEQEVCKLQEQ | 4.98 |
| QKELQDVHQSLRIKEQEVCKLQEQ | 5 |
| QKELQDVCQSLRIKEQEVCKLQEQ | 4.92 |
| QKELQDVSQSLRIKEQEVCKLQEQ | 5 |
| QKELQDVNQSLRIKEQEVCKLQEQ | 5.12 |
| QKELQDVLQSLRIKEQEVCKLQEQ | 3.83 |
| QKELQDVDQSLRIKEQEVCKLQEQ | 5.26 |
| QKELQDVAQSLRIKEQEVCKLQEQ | 3.61 |
| QKELQDTGQSLRIKEQEVCKLQEQ | 5.68 |
| QKELQDDGQSLRIKEQEVCKLQEQ | 5.71 |
| QKELQDNGQSLRIKEQEVCKLQEQ | 4.92 |
| QKELQDEGQSLRIKEQEVCKLQEQ | 5.11 |
| QKELQDAGQSLRIKEQEVCKLQEQ | 5.19 |

| Variant | protein stability index |
| --- | --- |
| QKELQDIGQSLRIKEQEVCKLQEQ | 5.05 |
| QKELQDSGQSLRIKEQEVCKLQEQ | 5.76 |
| QKELQDPGQSLRIKEQEVCKLQEQ | 4.8 |
| QKELQDLGQSLRIKEQEVCKLQEQ | 5.14 |
| QKELQDVGQSLRIKEQEVCKLQCQ | 4.29 |
| QKELQDVGQSLRIKEQEVCKLQHQ | 5.02 |
| QKELQDVGQSLRIKEQEVCKLQVQ | 4.51 |
| QKELQDVGQSLRIKEQEVCKLQYQ | 4.12 |
| QKELQDVGQSLRIKEQEVCKLQGQ | 5.58 |
| QKQLQDVGQSLRIKEQEVCKLQEQ | 4.68 |
| QKRLQDVGQSLRIKEQEVCKLQEQ | 5.25 |
| QKALQDVGQSLRIKEQEVCKLQEQ | 4.92 |
| QKYLQDVGQSLRIKEQEVCKLQEQ | 4.4 |
| QKELKDVGQSLRIKEQEVCKLQEQ | 5.7 |
| QKELLDVGQSLRIKEQEVCKLQEQ | 2.94 |
| QKELQDVGQSLRIKEQEVCRLQEQ | 4.82 |
| QKELQDVGQSLRIKEQEVCPLQEQ | 4.98 |
| QKELQDVGQSLRIKEQEVCNLQEQ | 5.12 |
| QKELQDVGQSLRSKEQEVCKLQEQ | 5.45 |
| QKELQDVGQSLRTKEQEVCKLQEQ | 5.13 |
| QKELQDVGQSLRFKEQEVCKLQEQ | 4.85 |

Variants of: B2
Assay: as above
Details: c terminus: a fixed tail appended

| Variant | protein stability index |
| --- | --- |
| ACAQLATGAACRLVEAVLSGEVQN | 1.05 |
| ACAQTATGAACRLVEAVLSGEVLN | 1.37 |
| ACAQLANGAACRLVEAVLSGEVLN | 1.54 |
| ACAQLATGAACRLVEAVLSGEFLN | 2.71 |
| ACAQLATGAACPLVEAVLSGEVLN | 2.66 |
| ACAQLATGAACRLVEATLSGEVLN | 2.04 |
| ACAQLATGAACRLVEAQLSGEVLN | 1.85 |
